The target in assay [1] is biotinylated DENND1A.V2 specific 21 amino acid peptide … (Biotin-CH22) (human). The assay can be described thus: QC phage ELISA-1, helper phage control, coating Biotin-CH22. For orientation: An ELISA detects its analyte on a solid surface through an enzyme-linked reagent.
The target is the same in assay [2]. The assay can be described thus: QC phage ELISA-2, helper phage control, coating Biotin-CH22.
Assay [3] concerns the target T1, biotinylated DENND1A.V2 specific 21 amino acid peptide QKSITHFAAKFPTRGWTSSSH (Biotin-CH22) (human, biotinylated (position not given)).
T1 construct: Immobilised on streptavidin pre-coated plates; The label CH22 is not explained; also called Bio-CH-22; bio-peptide
T1 peptide: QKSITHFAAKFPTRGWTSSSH
The assay can be described thus: ELISA (FIG. 11C).

On to M13KO7 helper phage, for which the results for the phage ELISA signal in assay [1] and in assay [2] were 0.477 and 0.533, respectively.

B1: human recombinant DENND1A.V2 specific IgG1 (V2 hmAB) (antibody, V domains shown)
VH: EVQLLESGGGLVQPGGSLRLSCAASGFTFSSYAMSWVRQAPGKGLEWVSIIGTDGDDTNYADSVKGRFTISRDNSKNTLYLQMNSLRAEDTAVYYCAKAEASFDYWGQGTLVTVSS
VL: DIQMTQSPSSLSASVGDRVTITCRASQSISSYLNWYQQKPGKAPKLLIYGASDLQSGVPSRFSGSGSGTDFTLTISSLQPEDFATYYCQQYDSAPSTFGQGTKVEIKR
notes: Expressed in 293E cells, Protein A purified; also called humanized monoclonal antibody; recombinant DENND1A.V2 IgG1
For the molecule B1, the binding result in assay [3] is reported as “binds”.
